Results published in paper doi:10.1101/2020.05.14.095372.

Molecular target: Mature human mitochondrial heat shock protein family D member 1 (HSPD1) (human), P10809
Assay: cryo-EM structure
Conditions: remark: other sources report otherwise

- stoichiometry N: 7
B1: Mature human mitochondrial heat shock protein family D member 1 (HSPD1), P10809 27-573 (natural protein)
chain: AKDVKFGADARALMLQGVDLLADAVAVTMGPKGRTVIIEQSWGSPKVTKDGVTVAKSIDLKDKYKNIGAKLVQDVANNTNEEAGDGTTTATVLARSIAKEGFEKISKGANPVEIRRGVMLAVDAVIAELKKQSKPVTTPEEIAQVATISANGDKEIGNIISDAMKKVGRKGVITVKDGKTLNDELEIIEGMKFDRGYISPYFINTSKGQKCEFQDAYVLLSEKKISSIQSIVPALEIANAHRKPLVIIAEDVDGEALSTLVLNRLKVGLQVVAVKAPGFGDNRKNQLKDMAIATGGAVFGEEGLTLNLEDVQPHDLGKVGEVIVTKDDAMLLKGKGDKAQIEKRIQEIIEQLDVTTSEYEKEKLNERLAKLSDGVAVLKVGGTSDVEVNEKKDRVTDALNATRAAVEEGIVLGGGCALLRCIPALDSLTPANEDQKIGIEIIKRTLKIPAMTIAKNAGVEGSLIVEKIMQSSSEVGYDAMAGDFVNMVEKGIIDPTKVVRTALLDAAGVASLLTTAEVVVTEIPKEEKDPGMGAMGGMGGGMGGGMF
